Data on one protein can be found in article PMC3062784 (Biochimica et Biophysica Acta, 2011).

“And” between values parts separate entries of the source, which are not always exact repeats. Equal values may be shown once.

As a reminder, the stoichiometry N is a count of units in the complex or per binding partner.

The data set “cross-linking” concerns the molecule itself. In words: cross-linking.
The data set “native gel or EMSA” deals with the molecule itself. Briefly: native gel or EMSA. (In general: A gel shift assay detects complexes by their altered migration in electrophoresis.)

B1: C-terminally triple HA-tagged Pun1p expressed via the MET25 promoter from plasmid YEpM-PUN1-HA (natural protein, S. cerevisiae, UniProt Q06991 1-263, looked up)
chain: MRNFFTLFFAAIFSLGALILAIVACAGSTKNYSPINKIYCAELDLSQMKVSTVLPSLSSATLSSLGLPSYINIGLWSYCTVDSSHNIQSCSSPHGIQNFNLSSLVYDNINNNEALELMDSVASVVLPEKLKSKMTYYNNLVKCMFITILIGIVLTFVNLVFNVLRWIIHIRPLTWFGAFFSFFAFAALLVSIGSCLGTYSYIKYILKHNYSDYGISMSIGRNYQGLMWGAVVGALLNFILWCSVRSRPTVIYANAPIEEKPLI
With B1, the “stoichiometry N” value in the data set “cross-linking” was 2 and 4 and 6; in the data set “native gel or EMSA”, 10 and 12 and 8.
